{"source": "paper PMC3154745", "key": {"[1]": {"molecular_target": "T1, Full length HP1a, pET11a construct (AUC) (D. melanogaster), P05205", "T1 chain": "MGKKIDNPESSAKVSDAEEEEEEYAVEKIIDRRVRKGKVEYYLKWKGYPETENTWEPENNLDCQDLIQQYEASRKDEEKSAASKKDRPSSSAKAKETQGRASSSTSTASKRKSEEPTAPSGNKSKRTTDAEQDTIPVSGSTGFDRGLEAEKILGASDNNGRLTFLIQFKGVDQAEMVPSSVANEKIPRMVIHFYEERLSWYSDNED", "experiment": "AUC", "details": "remark: other sources report otherwise"}, "[2]": {"molecular_target": "HP2 peptide with PIWI pentamer, N-terminal fluorescein (D. melanogaster)", "experiment": "fluorescence polarisation"}, "[3]": {"molecular_target": "PIWI peptide with HP2 pentamer, N-terminal fluorescein (D. melanogaster)", "experiment": "fluorescence polarisation"}}, "data": [{"binder": "Full length HP1a, pET11a construct (AUC), P05205 1-206 (natural protein) MGKKIDNPESSAKVSDAEEEEEEYAVEKIIDRRVRKGKVEYYLKWKGYPETENTWEPENNLDCQDLIQQYEASRKDEEKSAASKKDRPSSSAKAKETQGRASSSTSTASKRKSEEPTAPSGNKSKRTTDAEQDTIPVSGSTGFDRGLEAEKILGASDNNGRLTFLIQFKGVDQAEMVPSSVANEKIPRMVIHFYEERLSWYSDNED", "values": [{"measurement": "Kd", "setting": "[1]", "result": 1400, "unit": "nM"}]}, {"binder": "HP1a-CSD (residues 131-206), wild type (domain or fragment) EQDTIPVSGSTGFDRGLEAEKILGASDNNGRLTFLIQFKGVDQAEMVPSSVANEKIPRMVIHFYEERLSWYSDNED", "values": [{"measurement": "Kd", "setting": "[2]", "result": 990, "unit": "nM"}, {"measurement": "Kd", "setting": "[3]", "result": 21300, "unit": "nM"}]}]}
